Source: patent US20060242739A1, “Plant nucleotide-sugar pyrophosphatase/phosphodiesterase (nppase), method of obtaining same and use of same in the production of assay devices and in the production of transgenic plants” (Universidad Publica De Navarra, priority 2002, published 2006)

Assays:
[1] = slightly basic pH
[2] = biological target: T1, NPPase from barley leaves (Hordeum vulgare, UniProt Q687E1); assay: Enzymatic test of soluble NPPase from barley leaves: kinetic parameters, substrate specificity, effectors; details: qualitative
T1 sequence (Q687E1 19-368): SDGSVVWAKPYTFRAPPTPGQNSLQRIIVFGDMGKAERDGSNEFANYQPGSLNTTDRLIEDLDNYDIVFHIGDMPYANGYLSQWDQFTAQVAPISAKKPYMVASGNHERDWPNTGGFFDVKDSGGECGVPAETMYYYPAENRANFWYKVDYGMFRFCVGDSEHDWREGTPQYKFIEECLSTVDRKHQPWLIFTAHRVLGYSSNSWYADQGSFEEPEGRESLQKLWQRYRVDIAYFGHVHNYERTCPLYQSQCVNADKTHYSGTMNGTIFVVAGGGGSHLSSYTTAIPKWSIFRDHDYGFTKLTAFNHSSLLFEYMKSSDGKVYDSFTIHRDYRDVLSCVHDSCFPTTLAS

B1: NPPase: plant nucleotide pyrophosphatase/phosphodiesterase, soluble 70-kDa isoform purified from barley leaves (protein)
chain: MVSRKRGGGGGVAMAVAMLLAAASASRPSSSLEGFQPLSKIAVHKATVDLHGSAFVSATPALLGDQGEDTEWVTVKYGWANPSADDWIAVFSPADFISGSCPNPSRYPDEPLLCTAPIKYQFANYSANYVYWGKGSIRFQLINQRYDFSFALFTGGLENPKLVAVSEAISFKNPKAPVYPRLAQGKSYDEMTVTWTSGYDISEAYPFVEWGMVVAGAAAPTRTAAGTLTFNRGSMCGDPDRTVGWRDPGFIHTAFLRDLWPNKEYYYKIGHELSDGSIVWGKQYTFRAPPFPGQNSLQRIIVFGDMGKAERDGSNEFANYQPGSLNTTDRLVEDLDNYDIVFHIGDLPYANGYISQWDQFTAQVAPITAKKPYMIASGNHERDWPNTGGFFDVKDSGGECGVPAETMYYYPAENRANFWYKVDYGMFRFCIADSEHDWREGTDQYKFIEQCLSTVDRKHQPWLIFAAHRVLGYSSNWWYADQQSFEEPEGRESLQRLWQRHRVDVAFFGHVHNYERTCPMYQSQCVSGERRRYSGTMNGTIFVVAGGGGSHLSDYTSAIPKWSVFRDRDFGFVKLTAFNHSSLLFEYKKSSDGKVYDSFTVERDYRDVLSCVHDSCLPTTLAS
pH sensitivity [1]: sensitive

B2: Proteinase K: protease (Boehringer) (protein, UniProt P06873 106-384, looked up)
Proteinase K: AAQTNAPWGLARISSTSPGTSTYYYDESAGQGSCVYVIDTGIEASHPEFEGRAQMVKTYYYSSRDGNGHGTHCAGTVGSRTYGVAKKTQLFGVKVLDDNGSGQYSTIIAGMDFVASDKNNRNCPKGVVASLSLGGGYSSSVNSAAARLQSSGVMVAVAAGNNNADARNYSPASEPSVCTVGASDRYDRRSSFSNYGSVLDIFGPGTSILSTWIGGSTRSISGTSMATPHVAGLAAYLMTLGKTTAASACRYIADTANKGDLSNIPFGTVNLLAYNNYQA
resistance of NPPase to ionic detergents and proteases [2]: resistant
